These substances were tested against acetylcholine receptor (Homo sapiens, UniProt P02708) (assay: SPR binding affinity (RU) of optimized 5mer/6mer/7mer peptides, Examples 6-7). Details: 6mer-1 Top sequence; SPR; peptides tested at 10 μM.
Procedure, shortened: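 Binding response (RU) to the human acetylcholine receptor was measured by SPR. Each 5mer or 6mer library peptide was applied at 10 μM, with sequences drawn from top and bottom amino-acid combinations.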

Chain of acetylcholine receptor (P02708 21-457): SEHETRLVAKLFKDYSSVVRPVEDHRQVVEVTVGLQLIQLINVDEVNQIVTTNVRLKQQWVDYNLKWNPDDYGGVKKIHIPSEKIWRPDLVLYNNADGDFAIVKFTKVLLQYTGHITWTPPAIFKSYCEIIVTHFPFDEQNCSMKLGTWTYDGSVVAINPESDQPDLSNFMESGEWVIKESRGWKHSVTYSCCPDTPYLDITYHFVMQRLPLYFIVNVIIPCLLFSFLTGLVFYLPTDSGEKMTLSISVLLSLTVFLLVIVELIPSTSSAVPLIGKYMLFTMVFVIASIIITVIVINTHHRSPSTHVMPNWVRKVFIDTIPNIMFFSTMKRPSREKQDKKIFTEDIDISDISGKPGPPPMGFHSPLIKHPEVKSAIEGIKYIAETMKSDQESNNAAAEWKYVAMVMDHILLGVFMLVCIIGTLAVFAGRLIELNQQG

| Substance | Binding affinity |
| --- | --- |
| 6mer-1-258 (KKLQYK) | 137 Ru |
| 6mer-1-330 (RKVQRK) | 148 Ru |
| 6mer-1-319 (KRWVQK) | 123 Ru |
| 6mer-1-353 (KRLYLK) | 126 Ru |

Same assay, conditions: 6mer-2 Top sequence; SPR; peptides tested at 10 μM

| Substance | Binding affinity |
| --- | --- |
| 6mer-2-145 (RQYYKK) | 128 Ru |
| 6mer-2-19 (RSFSKK) | 135 Ru |
| 6mer-2-147 (RQYTKR) | 133 Ru |
| 6mer-2-122 (RVITKK) | 125 Ru |
| 6mer-2-189 (RWQCKK) | 121 Ru |
| 6mer-2-3 (KVYSRK) | 148 Ru |
| 6mer-2-74 (RWIYKR) | 136 Ru |
| 6mer-2-144 (KSIRRK) | 133 Ru |
| 6mer-2-201 (KLFLRR) | 148 Ru |
| 6mer-2-140 (KGRLKK) | 142 Ru |
| 6mer-2-155 (KGVYKK) | 139 Ru |
| 6mer-2-117 (KRYTRK) | 148 Ru |

Same assay, conditions: SPR, Resonance Units; 5mer Bottom sequence (bottom combinations); peptides tested at 10 μM

| Substance | Binding affinity |
| --- | --- |
| 5mer-670 (KPCVK) | 23 Ru |
| 5mer-797 (KETHK) | 15 Ru |
| 5mer-749 (KHTWR) | 24 Ru |
| 5mer-792 (RMEKK) | 31 Ru |
| 5mer-1102 (KTHKK) | 20 Ru |
| 5mer-962 (RIWKR) | 23 Ru |
| 5mer-677 (RCEMR) | 15 Ru |
| 5mer-901 (KCTNR) | 30 Ru |
| 5mer-811 (KMTMR) | 32 Ru |
| 5mer-1100 (RPWKR) | 24 Ru |
| 5mer-738 (KTPMK) | 29 Ru |
| 5mer-717 (KCKFR) | 20 Ru |
| 5mer-969 (RNTVR) | 27 Ru |
| 5mer-1071 (RYEGR) | 16 Ru |

Same assay, conditions: SPR, Resonance Units; peptides tested at 10 μM; 6mer-1 Bottom sequence

| Substance | Binding affinity |
| --- | --- |
| 6mer-1-1137 (KRFTDK) | 33 Ru |
| 6mer-1-1022 (RKDTVR) | 22 Ru |
| 6mer-1-1033 (KRHMVK) | 30 Ru |
| 6mer-1-1193 (KKPTNK) | 33 Ru |
| 6mer-1-1008 (RKPWAR) | 21 Ru |
| 6mer-1-1056 (RRNTAK) | 27 Ru |

Same assay, conditions: SPR, Resonance Units; peptides tested at 10 μM; 6mer-1 Bottom sequence (Table 11)

| Substance | Binding affinity |
| --- | --- |
| 6mer-1-699 (RRTTVR) | 28 Ru |
| 6mer-1-778 (RRDDFR) | 28 Ru |
| 6mer-1-708 (KKKHEK) | 14 Ru |
| 6mer-1-717 (KRHEDR) | 22 Ru |

Same assay, conditions: SPR, Resonance Units; peptides tested at 10 μM; 6mer-2 Bottom sequence

| Substance | Binding affinity |
| --- | --- |
| 6mer-2-767 (RICGRK) | 13 Ru |
| 6mer-2-623 (KHAHRR) | 13 Ru |
| 6mer-2-683 (KTEIRK) | 33 Ru |
| 6mer-2-866 (RDNPKK) | 24 Ru |
| 6mer-2-804 (RNCGKR) | 21 Ru |
| 6mer-2-681 (RDTWRR) | 33 Ru |
| 6mer-2-887 (RCPKKR) | 18 Ru |
| 6mer-2-787 (RIWHKK) | 19 Ru |
| 6mer-2-606 (RKPFRR) | 15 Ru |
| 6mer-2-754 (KADGRR) | 12 Ru |
| 6mer-2-972 (KAMFRR) | 38 Ru |
| 6mer-2-869 (RHDHKR) | 18 Ru |
| 6mer-2-807 (KIWNRK) | 28 Ru |

Same assay, conditions: SPR, Resonance Units; peptides tested at 10 μM; 6mer-2 Top sequence

| Substance | Binding affinity |
| --- | --- |
| 6mer-2-418 (RVQYKK) | 121 Ru |

Same assay, conditions: SPR, Resonance Units; peptides tested at 10 μM; 6mer-2 Top sequence (Table 12)

| Substance | Binding affinity |
| --- | --- |
| 6mer-2-309 (KRRRRR) | 151 Ru |
| 6mer-2-332 (RRQYKK) | 145 Ru |
| 6mer-2-354 (RWISKK) | 135 Ru |
| 6mer-2-260 (RRFCKR) | 142 Ru |
| 6mer-2-208 (RSQQRK) | 128 Ru |
| 6mer-2-368 (RLRTRR) | 142 Ru |
| 6mer-2-391 (KQYQKR) | 141 Ru |
| 6mer-2-347 (RRYSKK) | 148 Ru |

Same assay, conditions: SPR, peptides at 10 μM; 6mer-2 Bottom sequence

| Substance | Binding affinity |
| --- | --- |
| 6mer-2-1045 (RHAHRR) | 41 Ru |
| 6mer-2-1199 (RCTNKR) | 27 Ru |
| 6mer-2-1191 (KKADRK) | 35 Ru |
| 6mer-2-1180 (RAANRR) | 34 Ru |
| 6mer-2-1005 (RFKARR) | 23 Ru |
| 6mer-2-1152 (RNWAKK) | 37 Ru |

Same assay, conditions: SPR, peptides tested at 10 μM; 5mer Top sequence

| Substance | Binding affinity |
| --- | --- |
| 5mer-45 (RVFQR) | 86 Ru |
| 5mer-43 (KSFYR) | 53 Ru |
| 5mer-412 (RGRSR) | 81 Ru |
| 5mer-84 (RVVRR) | 67 Ru |
| 5mer-493 (KSIRR) | 57 Ru |
| 5mer-128 (RGVCR) | 56 Ru |
| 5mer-116 (RWRSK) | 64 Ru |
| 5mer-463 (KWYTK) | 52 Ru |
| 5mer-485 (KRQRK) | 58 Ru |
| 5mer-126 (RGVTK) | 61 Ru |

Same assay, conditions: SPR, peptides tested at 10 μM; 5mer Top sequence (top combinations)

| Substance | Binding affinity |
| --- | --- |
| 5mer-538 (KQQQR) | 72 Ru |
| 5mer-563 (RLVLK) | 60 Ru |
| 5mer-565 (RLVSK) | 77 Ru |
| 5mer-277 (RVFTR) | 82 Ru |

Same assay, conditions: SPR, peptides tested at 10 μM; 6mer-1 Bottom sequence

| Substance | Binding affinity |
| --- | --- |
| 6mer-1-1200 (RKACEK) | 21 Ru |

Same assay, conditions: SPR, peptides tested at 10 μM; 6mer-1 Bottom sequence (Table 11)

| Substance | Binding affinity |
| --- | --- |
| 6mer-1-908 (KKFMVR) | 37 Ru |
| 6mer-1-819 (KRMHAK) | 17 Ru |
| 6mer-1-992 (RRCTAK) | 28 Ru |
| 6mer-1-899 (KRMKWK) | 31 Ru |
| 6mer-1-885 (RRKTPR) | 17 Ru |
| 6mer-1-851 (RRYMEK) | 30 Ru |
| 6mer-1-973 (RRDHVK) | 25 Ru |
| 6mer-1-941 (RKTPKK) | 29 Ru |
| 6mer-1-864 (RRTWGR) | 32 Ru |
| 6mer-1-984 (KKESDK) | 33 Ru |
| 6mer-1-869 (KRKDER) | 22 Ru |
| 6mer-1-799 (RRKKKR) | 30 Ru |
| 6mer-1-947 (KRTKGR) | 31 Ru |

Same assay, conditions: SPR, peptides tested at 10 μM; 6mer-1 Top sequence

| Substance | Binding affinity |
| --- | --- |
| 6mer-1-555 (KKWYLK) | 128 Ru |
| 6mer-1-576 (RKRQRR) | 153 Ru |
| 6mer-1-483 (KRQVTK) | 151 Ru |
| 6mer-1-554 (KRSVTR) | 131 Ru |
| 6mer-1-408 (KRGRSR) | 147 Ru |
| 6mer-1-452 (KRLYTR) | 141 Ru |
| 6mer-1-569 (RRVITK) | 148 Ru |
| 6mer-1-460 (RRGFYR) | 148 Ru |
| 6mer-1-594 (KRQLQR) | 121 Ru |
| 6mer-1-556 (KKGFTK) | 145 Ru |

Same assay, conditions: SPR, peptides tested at 10 μM; 6mer-1 Top sequence (top combinations)

| Substance | Binding affinity |
| --- | --- |
| 6mer-1-46 (KRLYQR) | 142 Ru |
| 6mer-1-73 (KKQQQR) | 142 Ru |
| 6mer-1-101 (KRWLYR) | 142 Ru |
| 6mer-1-197 (RRSIRR) | 139 Ru |
| 6mer-1-88 (KRWICK) | 121 Ru |

Same assay, conditions: SPR; XRRGVRR-7mer and RRGVRRX-7mer

| Substance | Binding affinity, values relative to the RRGVRR sequence |
| --- | --- |
| 3672 (RRGVRRT) [compound 3672] | 113 |
| 3664 (RRGVRRC) [compound 3664] | 131 |

Same assay, conditions: SPR; XRRQRR-6mer and RRQRRX-6mer

| Substance | Binding affinity, relative value to the RRQRR sequence |
| --- | --- |
| 3639 (RRQRRD) [compound 3639] | 65 |
| 3621 (RRQRRG) [compound 3621] | 109 |
| 3614 (NRRQRR) [compound 3614] | 113 |

Same assay, conditions: SPR; peptides tested at 10 μM; 5mer Bottom sequence

| Substance | Binding affinity |
| --- | --- |
| 5mer-840 (KDTAR) | 11 Ru |
| 5mer-1199 (KNNNR) | 29 Ru |
